Experimental data reported in publication PMC4751364, “Mitotic Activation of a Novel Histone Deacetylase 3-Linker Histone H1.3 Protein Complex by Protein Kinase CK2*” (The Journal of Biological Chemistry, 2015).

Molecular target: T1, Human recombinant HDAC3 (human, UniProt O15379 1-428)
T1 construct: human recombinant HDAC3 (Biomol); No catalogue number, host or tag is printed for the bought protein; also called recombinant human HDAC3; source: bought: Biomol
Test: pull-down; recombinant HDAC3 (8 ug) incubated with recombinant H1.3 (4 ug), overnight at 4 C; pulled down with anti-HDAC3 antibody and protein A/G-agarose; SDS-PAGE, Coomassie staining
Settings: both partners purified

T1 sequence (O15379 whole entry): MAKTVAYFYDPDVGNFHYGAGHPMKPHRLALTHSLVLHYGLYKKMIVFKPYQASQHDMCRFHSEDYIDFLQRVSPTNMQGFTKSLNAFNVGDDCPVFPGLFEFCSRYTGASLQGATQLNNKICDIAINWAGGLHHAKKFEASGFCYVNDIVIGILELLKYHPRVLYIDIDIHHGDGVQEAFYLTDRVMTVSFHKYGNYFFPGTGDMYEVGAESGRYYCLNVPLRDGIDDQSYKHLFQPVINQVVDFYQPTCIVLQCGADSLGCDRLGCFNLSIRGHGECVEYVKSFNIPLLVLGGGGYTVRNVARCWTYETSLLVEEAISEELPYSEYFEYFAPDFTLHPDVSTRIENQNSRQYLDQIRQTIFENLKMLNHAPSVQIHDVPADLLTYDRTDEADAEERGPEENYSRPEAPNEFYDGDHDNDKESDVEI

binding result: binds
B1: Human recombinant H1.3 (natural protein, UniProt P16402 1-221, looked up)
chain: MSETAPLAPTIPAPAEKTPVKKKAKKAGATAGKRKASGPPVSELITKAVAASKERSGVSLAALKKALAAAGYDVEKNNSRIKLGLKSLVSKGTLVQTKGTGASGSFKLNKKAASGEGKPKAKKAGAAKPRKPAGAAKKPKKVAGAATPKKSIKKTPKKVKKPATAAGTKKVAKSAKKVKTPQPKKAAKSPAKAKAPKPKAAKPKSGKPKVTKAKKAAPKKK
notes: human recombinant histone H1.3 (Alexis Biochemicals); No catalogue number, host or tag is printed for the bought protein; also called recombinant human histone H1.3; source: bought: Alexis Biochemicals
